Target: B8(RH)4 ligand: eightfold polymerized B domain from the native Protein A, C-terminally fused with th
Assay: static batch adsorption on an affinity membrane; Protein A ligand coupled by NHS/EDC (protocol I) to ALA-functionalized ALA@Au_PES200 membrane (6 mm); Trastuzumab 0-0.5 mg/mL in PBS pH 7.4, 1 h, 25 °C, 1000 rpm; supernatant UV-vis at 280 nm, ligand load by direct BCA

## Trastuzumab (antibody)
  stoichiometry N (antibody per Protein A ligand): 3
